From US20040005639A1, “Glycerylaldehyde-3-phosphate dehyrogenase promoter inducing cell death” (priority 2000, published 2004) come the findings set out here.

One data set deals with CGCs. Put plainly: Probability of survival of CGCs treated with AraC. It is filed as cell-based, rat. The procedure: (§1) CGCs were prepared according to the previous report (J. Neurochem., 66,928-935 (1996)). 16 hours after plating, the following were mixed and added to the non-serum cultures. In addition, it mixed beforehand and added in the culture so that the ratio of A and B might be set to 5:1, it might serve at a final concentration of 2 micro g/mL, C might be set to 1 micro L/micro g DNA and D might be set to 6 micro L/micro g DNA.
(§2) The cells were washed 20 hours after plating and the culture was continued for further 4 hours. […]
The probability of survival of CGCs treated with AraC (500 micro M) was 68% for 14 hours and 44% for 24 hours.

Data set [1] concerns rat cerebellum origin granule cells (CGCs). In words: Reporter assay: luciferase activity of CGCs transfected with promoter-pGL3-enhanser vector, after AraC addition. It is filed as cell-based. Conditions: for luciferase activity: vector without promoter set to 1.0. The procedure:
The plasmid which inserted promoter sequence (p104-pCR-Script Amp SK (+) and p302-pCR-Script Amp SK (+)) were cleaved at BsmBI site which exists just upstream of translation starting site of GAPDH protein and was created blunt-ends. The fragment was cleaved at the MluI site of 5′-end, sequence including promoter sequence was excised.
The pGL3-enhanser vector (Promega) was opened the MluI-SmaI site, and each promoter sequence excised here was inserted.
Reporter assay was performed with each vector as follows. Reporter assay used the primary culture cell of rat cerebellum origin granule cells (CGCs).
as §1
A) p104-pGL3-enhanser vector or p302-pGL3-enhanser vector both vector contains a firefly luciferase gene on the downstream of the promoter.
B) pRL-SV40 vector (it includes Renilla luciferase gene as an internal standard enzyme on the downstream of SV40 promoter currently activated constantly),
as §2
(In general: A reporter such as luciferase makes a cellular process visible.)

For `Nc1ccn([C@@H]2O[C@H](CO)[C@@H](O)[C@@H]2O)c(=O)n1` [AraC, cytosine arabinoside], the “probability of survival of CGCs” value is listed as “more than 90%” in the data set on CGCs (AraC 10 micro M, 14 or 24-hours culture); 68% in the data set with CGCs (AraC 500 micro M, 14 hours); 44% with CGCs (AraC 500 micro M, 24 hours).

B1: p104: 1.2 kb rat GAPDH promoter fragment amplified from the EcoRV genome library, SEQ ID NO: 1 (nucleic acid, listed as Rattus norvegicus)
DNA: ACTATAGGGCACGCGTGGTCGATGGCTTGGGTTGGTATCTACGACTAAACAAGAGAGAGAATGAGATTAATCTCCGCATAATAGTGTGTATCGGCTGAACATACACAGACACACACAGACACACACATACACACAGACACAGAAACATACGCTTAGCACACACAGAAGCACACATACACAGACAGAAACTCACATACACAGAGACCCACAGATATAGACACACAGAGACACAGATGCACACACAGACCTACTTACACACTCATAGACATAGATACACACACATAGACACACACTGACATATCAACACACCTACAGACACACACACCACACATACGCACACACACATACATGAACACACACATACACACGCACACACATACACACACATGGAAACACATGTTTTATGAAGATCTAGGAATTACCCCAATCACAGTAGAATGGATGCCTGTGTTGGGACCCAGGAGGGACAGGAAATAGAAATGGGCTAGGGGGCTGGAGAGATGGCTCAGAGGTTAAGAGCACTGTCTGCTCTTCCAGAGGTCCGGAGTTCAATTCCCAGAAACCACATGGTGGCTCACAACCATCTATAATCAGGTCTGGTGCCCTCTTCTGGCCTGCAGGCATACATGCAAGCAGAAAGCTGTATGATGTATACATAATAAATAAATAAATTTGAAAAAAAAGAAATGGGCTTAGGGGTGATGGGAAGAGAAGGACTCTGAAGGTCTGTAGACCGCTCATAAACTGGGGCAGACGTTGCTCCTGCTTGAGCACCTGACTTCCCAGTCCATTGCCACCATGGTCTTTGTGCCACCATGGCCAGTCCAAGGCCATCCTTAAACAGGCTGCAAAAAGTTTTAACTAGGACCATTAGATTGTCTCTTAAAACTATGAAAGGTTTTACTTTATTTCTCTCTCTCTCTCTCTCTCTCTCTCTCTCTCATTTTAAAAATATTTTTTCGGCTCTCTGCTCCTCCCTGTTCTAGAGACAGCCGCATCTTCTTGTGCAGTGCCAGCCTCGTCTCATAGACAAGATGGTGAAGGTCGGTGTGAACGGATTTGGCCGTATCGGACGCCTGGTTACCAGGGCTGCCTTCTCTTGTGACAAAGTGGACACTGTTGCC
modifications: CDS (1035)..(1124)
As for B1, in data set [1] (24 hours after AraC addition, CGCs transformed by p104-pGL3-enhanser vector), the “increase of luciferase activity” value worked out at 1.7 times. Also, the promoter activation entry in data set [1] (AraC 10 micro M (Table 2), result in words) was “neither of the two promoters (p104 and p302) showed significant activation”. Besides, the luciferase activity in data set [1] (Table 1, AraC 500 micro M, culture time after addition 14 hours) came to 1.7; in data set [1] (Table 1, AraC 500 micro M, culture time after addition 24 hours), 2.4; in data set [1] (Table 2, AraC 10 micro M, culture time after addition 14 hours), 1.2; in data set [1] (Table 2, AraC 10 micro M, culture time after addition 24 hours), 1.3.
